Experimental data reported in patent US20260158139A1, “CARD9 VARIANT POLYPEPTIDE AND ANTIBODIES DIRECTED THERETO” (The Broad Institute, Inc., priority 2023, published 2026).
Where a chain is given by its changes, count along the chain named.

T1: CARD9 R101C (endogenous knock-in variant, in CARD9 R101C mouse BMDCs) (Mus musculus, UniProt A2AIV8 1-536)
T1 construct: CRISPR knock-in mouse; The protein stood in lysates of HKCA-stimulated BMDCs
T1 sequence: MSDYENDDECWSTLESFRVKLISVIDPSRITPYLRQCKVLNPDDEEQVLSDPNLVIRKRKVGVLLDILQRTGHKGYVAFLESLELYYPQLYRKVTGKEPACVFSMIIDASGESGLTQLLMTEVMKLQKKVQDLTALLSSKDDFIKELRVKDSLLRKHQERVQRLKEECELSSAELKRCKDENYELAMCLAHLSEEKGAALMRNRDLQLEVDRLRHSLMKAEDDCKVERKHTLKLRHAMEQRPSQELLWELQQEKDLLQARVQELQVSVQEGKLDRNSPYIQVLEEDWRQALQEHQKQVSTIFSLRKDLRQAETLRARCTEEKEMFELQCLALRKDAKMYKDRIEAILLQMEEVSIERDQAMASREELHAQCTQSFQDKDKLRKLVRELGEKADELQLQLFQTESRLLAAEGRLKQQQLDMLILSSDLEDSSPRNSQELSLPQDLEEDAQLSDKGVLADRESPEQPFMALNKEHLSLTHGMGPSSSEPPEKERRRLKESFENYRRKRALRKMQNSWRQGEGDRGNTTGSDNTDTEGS

T2: CARD9 (endogenous, in WT mouse BMDCs) (Mus musculus, UniProt A2AIV8 1-536)
T2 construct: Endogenous protein in lysates of HKCA-stimulated WT mouse BMDCs; also called WT CARD9
T2 sequence: T1 sequence with C101R

B1: Bcl10 (endogenous, in mouse BMDCs) (other, UniProt Q9Z0H7 1-233, looked up)
chain: MEAPAPSLTEEDLTEVKKDALENLRVYLCEKIIAERHFDHLRAKKILSREDTEEISCRTSSRKRAGKLLDYLQENPRGLDTLVESIRREKTQSFLIQKITDEVLKLRNIKLEHLKGLKCSSCEPFAAGATNNLSRCNSDESNLSEKQRASTVMYHPEGESSTAPFFSMASSLNLPVLEVGRTENSSFSSATLPRPGDPGAPPLPPDLRLEEGGSCGNSSEMFLPLRSRALSRQ
B2: phospho-specific CARD9 S104 antibody: mouse monoclonal IgG1 antibody to phosphorylated S104 of CARD9; clone 4F9.H5 used in the study; VH/VL in Table 1 (antibody, V domains shown)
VH: EVQLQQSGPELVKPGASMKMSCKASGYSFTGQTMHWVKQTHGKNLEWIGLINPYNGGTKYNQIFTGKATLTVDKSSSSAYMELLSLTSEDSAVYFCAIWDYVLDYWGQGTSVTVSSAKTTPPSVYPLAPGSAAQTNSMVTLGCLVK
VL: DVVMTQTPLSLPVSLGDQASISCRSSQSLLHSNGKTYLHWYLQKPGQSPKLLIYKVSNRFSGVPDRFSGSGSGTDFTLKISRVEAEDLGVYFCSQSTHIPPTFGGGTKLEIKRADAAPTVSIFPPSSEQLTSGGASVVCF

How the values were obtained:
[1] = target: T1, CARD9 R101C (endogenous knock-in …); test: Bcl10 immunoprecipitation from HKCA-stimulated BMDCs, western blot
Protocol: (§1) Lysate was incubated for 30 min and centrifuged at 2000 rpm for 10 min at 4° C. 50 μl of the supernatant was collected as whole cell lysate (WCL) fraction. Remaining supernatant was collected and incubated overnight with 10 al/sample of CARD9 antibody (Cell Signaling Technology #12283S) at 4° C. while rotating. The next day, 50 μl of Dynabeads Protein G beads (Life Technologies #10004D) were added and incubated for 1 h rotating at 4° C. Immunoprecipitates were washed 3× with standard lysis buffer and resuspended in 25 μl of 2× Laemmli buffer (BioRad #1610737) supplemented with 5% R-mercaptoethanol followed by boiling for 10 min at 75° C. For Bcl10 IP to detect CBM complex formation, cell pellets were resuspended in lysis buffer (PBS, 0.5% NP-40) supplemented with 1× Halt Protease & Phosphatase Inhibitor Single-Use Cocktail and Pierce Universal Nuclease and kept on ice for 10 min. Lysate was centrifuged for 10 min at 2000 rpm at 4° C. 50 μl of the supernatant was collected as whole cell lysate (WCL) fraction. Remaining supernatant was incubated overnight with 200 al/sample of Bcl10 antibody (Santa Cruz Biotechnology #sc-5273) at 4° C. rotating. The next day, 50 μl of Dynabeads Protein G beads were added and incubated for 1 h rotating at 4° C. […]

[2] = target: T2, CARD9 (endogenous, in WT mouse BMDCs); test: Bcl10 immunoprecipitation from HKCA-stimulated BMDCs, western blot for CARD9
Protocol: as §1

[3] = system: phosphorylated S104 (pS104) of CARD9, peptides pS104, pS104/R101C, S104; test: ELISA of hybridoma clones against CARD9 peptides (antibody specificity); assay type: binding; details: pS104 in the context of either R101 or C101
Excerpt: FIGS. 9A-9J provide schematics, pictures, a table, graphs showing that CARD9 activation through S104 phosphorylation is impaired by the R101C variant implicated in fungal disease. FIG. 9A, schematic representation of CRISPR KI into CARD9 allele to obtain endogenous CARD9 R101C mutation. Figure discloses SEQ ID NOS 69-71, respectively, in order of appearance. FIG. 9B, representative sequencing result highlighting the presence of mutated base pair (arrow). Figure discloses SEQ ID NOS 72-74, respectively, in order of appearance. FIG. 9C, WB from BMDCs isolated from WT or CARD9 R101C mutant mice. FIG. 9D, WB from splenic CD11c positive cells isolated from WT or CARD9 R101C mutant mice. FIG. 9E, table summarizing hybridoma screening results for binding affinity of different phospho-S104 specific antibodies. ELISA results are shown as values of absorbance at 490 nm, representing antibody reactivity towards either pS104, or pS104/R101C, or S104 peptides. Antibody used in the study is row 6 (i.e., 4F9.H5). FIG. 9F, IL-6 concentration in supernatants from BMDCs from WT, CARD9−/− or CARD9R101C mutant treated with indicated concentrations of WGP, HKCA, HKTR or LPS (10 ng/ml) for 24h. (n=3 mice per condition). […]

Row | Molecule | binding result [1] | binding result [2] | recognition of S104 phosphorylation (antibody specificity by ELISA against different peptides) [3]
1 | B1 | no binding | binds | –
2 | B2 | – | – | recognizes S104 phosphorylation independently of R101
